Data reported in article PMC3871816, “The Arabidopsis adaptor protein AP-3µ interacts with the G-protein β subunit AGB1 and is involved in abscisic acid regulation of germination and post-germination development” (Journal of Experimental Botany, 2013).

Molecular target: T1, GST-fused AP-3µ (Arabidopsis thaliana, UniProt F4I562 1-415)
T1 construct: AP-3µ of Arabidopsis thaliana; construction is in Supplementary Method S2, induction and purification in Supplementary Method S3; also called GST-AP-3µ; pGEX-5X-AP-3µ
T1 sequence (looked up): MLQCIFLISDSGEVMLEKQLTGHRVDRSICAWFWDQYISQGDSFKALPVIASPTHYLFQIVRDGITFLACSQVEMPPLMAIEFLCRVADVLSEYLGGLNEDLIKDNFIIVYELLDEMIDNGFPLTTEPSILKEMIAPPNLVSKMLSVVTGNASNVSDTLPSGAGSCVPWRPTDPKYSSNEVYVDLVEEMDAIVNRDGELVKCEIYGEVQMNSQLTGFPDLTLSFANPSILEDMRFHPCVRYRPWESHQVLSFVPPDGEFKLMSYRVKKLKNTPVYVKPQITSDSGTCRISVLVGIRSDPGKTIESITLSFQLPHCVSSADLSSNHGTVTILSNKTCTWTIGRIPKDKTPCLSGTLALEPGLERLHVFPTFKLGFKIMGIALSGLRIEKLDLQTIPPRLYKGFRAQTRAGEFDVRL
Test: pull-down; GST-AP-3µ or GST-AP-3µ^DN bound to Glutathione Sepharose 4 Fast Flow, washed with PBS, incubated with purified His-AGB1 at room temperature for 60 min; eluted with 20 mM reduced glutathione; immunoblot with anti-GST and HisProbe-HRP
Settings: both partners purified

binding result: binds
B1: Polyhistidine-tagged AGB1 (natural protein, Arabidopsis thaliana, UniProt P49177 1-377, looked up)
chain: MSVSELKERHAVATETVNNLRDQLRQRRLQLLDTDVARYSAAQGRTRVSFGATDLVCCRTLQGHTGKVYSLDWTPERNRIVSASQDGRLIVWNALTSQKTHAIKLPCAWVMTCAFSPNGQSVACGGLDSVCSIFSLSSTADKDGTVPVSRMLTGHRGYVSCCQYVPNEDAHLITSSGDQTCILWDVTTGLKTSVFGGEFQSGHTADVLSVSISGSNPNWFISGSCDSTARLWDTRAASRAVRTFHGHEGDVNTVKFFPDGYRFGTGSDDGTCRLYDIRTGHQLQVYQPHGDGENGPVTSIAFSVSGRLLFAGYASNNTCYVWDTLLGEVVLDLGLQQDSHRNRISCLGLSADGSALCTGSWDSNLKIWAFGGHRRVI
notes: AGB1, G-protein β subunit of Arabidopsis thaliana; His-AGG1 is named in the same sentence but in no result; also called His-AGB1; His-tagged AGB1; source: E. coli, purified
